# According to PMC9079946, “Enzyme-free ultrasensitive fluorescence detection of epithelial cell adhesion molecules based on a toehold-aided DNA recycling amplification strategy†”:
# T1: EpCAM (UniProt P16422 24-265)
# T1 sequence: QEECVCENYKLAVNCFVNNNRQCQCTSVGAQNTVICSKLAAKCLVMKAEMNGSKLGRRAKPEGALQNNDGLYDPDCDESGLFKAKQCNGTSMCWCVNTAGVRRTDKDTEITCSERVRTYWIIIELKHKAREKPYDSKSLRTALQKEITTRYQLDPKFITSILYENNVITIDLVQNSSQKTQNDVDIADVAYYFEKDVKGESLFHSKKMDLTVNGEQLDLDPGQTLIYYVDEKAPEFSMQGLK
# B1: EpCAM aptamer / strand a duplex (mixed)
# DNA 1: CACTACAGAGGTTGCGTCTGTCCCACGTTGTCATGGGGGGTTGGCCTG
# DNA 2: AGACGCAACCTCTGT
# What was measured:
# CD86 = CD86 (UniProt P42081 24-247); test: strand a displacement with toehold-aided fluorescence amplification; 100 ng/mL CD86; slight fluorescence change only; 20 mM Tris-HCl, 100 mM NaCl, 10 mM KCl, 10 mM MgCl2, pH 7.5, 37 °C, 30 min; conditions: protein: commercial; partial duplex: 15 nt strand a hybridised to 48 nt aptamer; single-stranded 5' and 3' aptamer overhangs
# CD86, sequence (P42081 24-247): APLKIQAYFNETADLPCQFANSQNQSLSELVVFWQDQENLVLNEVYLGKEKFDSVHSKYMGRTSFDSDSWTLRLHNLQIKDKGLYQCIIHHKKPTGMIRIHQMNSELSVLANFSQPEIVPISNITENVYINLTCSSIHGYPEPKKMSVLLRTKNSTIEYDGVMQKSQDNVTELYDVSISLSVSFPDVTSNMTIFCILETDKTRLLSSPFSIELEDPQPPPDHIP
# EpCAM = target: T1, EpCAM; test: strand a displacement with toehold-aided fluorescence amplification; 30 nM aptamer/strand a, 50 ng/mL EpCAM, 10 mM Mg2+; strands b, c, d, e 100 nM; 20 mM Tris-HCl, 100 mM NaCl, 10 mM KCl, 10 mM MgCl2, pH 7.5, 37 °C, 30 min; conditions: protein: commercial; partial duplex: 15 nt strand a hybridised to 48 nt aptamer; single-stranded 5' and 3' aptamer overhangs
binder,measurement,setting,value
B1,binding result,CD86,no binding
same,binding result,EpCAM,binds
